Each sequence was assayed on Escherichia coli TOP10 (assay: shrunken log2 fold change of peptide-encoding DNA abundance (4.5 h post-induction vs induction); higher = less antimicrobial activity (less host growth inhibition)). Settings: time post-induction: 4.5 h; library: site-saturation at positions 5, 18, 19, 20.
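Note: peptides expressed intracellularly from a pBAD plasmid library in pooled LB shake-flask culture, induced with 0.3% L-arabinose, DNA abundance read by NGS, three biological replicates, DESeq2 with apeglm shrinkage.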

| Sequence | shrunken log2 fold change |
| --- | --- |
| RRIRPRPPRLPRPRPRPDAQPRP | 0.271 |
| RRIRDRPPRLPRPRPRPEIVPRP | 0.048 |
| RRIRGRPPRLPRPRPRPMACPRP | -0.119 |
| RRIRMRPPRLPRPRPRPIAEPRP | 3.46 |
| RRIRTRPPRLPRPRPRPVVHPRP | -0.0314 |
| RRIRTRPPRLPRPRPRPSINPRP | -0.63 |
| RRIRCRPPRLPRPRPRPKSDPRP | 0.0327 |
| RRIRVRPPRLPRPRPRPCIGPRP | -0.8 |
| RRIRPRPPRLPRPRPRPDNTPRP | -0.373 |
| RRIRTRPPRLPRPRPRPTQCPRP | 0.227 |
| RRIRMRPPRLPRPRPRPYPHPRP | 0.00442 |
| RRIRTRPPRLPRPRPRPQRVPRP | -0.0793 |
| RRIRGRPPRLPRPRPRPTIVPRP | 0.779 |
| RRIRERPPRLPRPRPRPMYYPRP | -0.241 |
| RRIRARPPRLPRPRPRPTPMPRP | 0.528 |
| RRIRHRPPRLPRPRPRPLHFPRP | -0.0265 |
| RRIRNRPPRLPRPRPRPPMVPRP | -0.0558 |
| RRIRQRPPRLPRPRPRPVFNPRP | -0.291 |
| RRIRFRPPRLPRPRPRPKGSPRP | 0.089 |
| RRIRTRPPRLPRPRPRPDKEPRP | -0.0196 |
| RRIRQRPPRLPRPRPRPTEFPRP | -0.113 |
| RRIRYRPPRLPRPRPRPNKNPRP | -0.935 |
| RRIRTRPPRLPRPRPRPTVCPRP | -0.509 |
| RRIRERPPRLPRPRPRPAAAPRP | 0.436 |
| RRIRDRPPRLPRPRPRPGGKPRP | -0.0179 |

| Sequence | shrunken log2 fold change |
| --- | --- |
| RRIRGRPPRLPRPRPRPYGPPRP | 0.0138 |
| RRIRNRPPRLPRPRPRPHLKPRP | -0.875 |
| RRIRFRPPRLPRPRPRPPGQPRP | 1 |
| RRIRFRPPRLPRPRPRPLPCPRP | -0.199 |
| RRIRQRPPRLPRPRPRPEIKPRP | -0.342 |
| RRIRSRPPRLPRPRPRPFYFPRP | -0.55 |
| RRIRWRPPRLPRPRPRPFHLPRP | -0.818 |
| RRIRARPPRLPRPRPRPAYVPRP | -0.118 |
| RRIRTRPPRLPRPRPRPQHDPRP | -0.259 |
| RRIRSRPPRLPRPRPRPGAMPRP | 0.724 |
| RRIRCRPPRLPRPRPRPDHIPRP | -0.489 |
| RRIRPRPPRLPRPRPRPREAPRP | 0.44 |
| RRIRIRPPRLPRPRPRPWPQPRP | 0.0274 |
| RRIRVRPPRLPRPRPRPFSFPRP | 1.26 |
| RRIRLRPPRLPRPRPRPSKNPRP | -0.296 |
| RRIRWRPPRLPRPRPRPRHAPRP | 0.0251 |
| RRIRGRPPRLPRPRPRPWTAPRP | 0.172 |
| RRIRKRPPRLPRPRPRPRQYPRP | 0.0199 |
| RRIRERPPRLPRPRPRPNALPRP | -0.247 |
| RRIRPRPPRLPRPRPRPYTFPRP | -0.504 |
| RRIRNRPPRLPRPRPRPLLWPRP | 0.369 |
| RRIRLRPPRLPRPRPRPNHVPRP | -0.449 |
| RRIRIRPPRLPRPRPRPFEHPRP | -0.321 |
| RRIRHRPPRLPRPRPRPKTIPRP | -0.486 |
| RRIRDRPPRLPRPRPRPIKSPRP | -0.236 |

| Sequence | shrunken log2 fold change |
| --- | --- |
| RRIRFRPPRLPRPRPRPHYHPRP | -0.834 |
| RRIRARPPRLPRPRPRPSWVPRP | -0.174 |
| RRIRTRPPRLPRPRPRPKFHPRP | -0.327 |
| RRIRRRPPRLPRPRPRPMSDPRP | -0.00309 |
| RRIRMRPPRLPRPRPRPDGQPRP | 1.15 |
| RRIRDRPPRLPRPRPRPGLAPRP | 0.565 |
| RRIRIRPPRLPRPRPRPLHWPRP | -0.138 |
| RRIRGRPPRLPRPRPRPAKSPRP | 0.492 |
| RRIRSRPPRLPRPRPRPEECPRP | 0.251 |
| RRIRCRPPRLPRPRPRPKWWPRP | 0.0539 |
| RRIRMRPPRLPRPRPRPIAHPRP | -0.0202 |
| RRIRCRPPRLPRPRPRPQIMPRP | -0.352 |
| RRIRPRPPRLPRPRPRPEAHPRP | 0.0215 |
| RRIRGRPPRLPRPRPRPWARPRP | 0.241 |
| RRIRFRPPRLPRPRPRPSCKPRP | -0.901 |
| RRIRNRPPRLPRPRPRPVCMPRP | -0.0349 |
| RRIRNRPPRLPRPRPRPDFAPRP | -0.0617 |
| RRIRQRPPRLPRPRPRPCCAPRP | 0.0773 |
| RRIRHRPPRLPRPRPRPTLIPRP | 0.0888 |
| RRIRNRPPRLPRPRPRPELPPRP | -0.098 |
| RRIRDRPPRLPRPRPRPNGDPRP | -0.00931 |
| RRIRQRPPRLPRPRPRPNRVPRP | -0.107 |
| RRIRMRPPRLPRPRPRPWGTPRP | 0.254 |
| RRIRHRPPRLPRPRPRPFTDPRP | -0.1 |
| RRIRYRPPRLPRPRPRPGVRPRP | 0.0103 |
